{"source": "patent US20200239579A1", "about": "(Genmab, published 2020)", "binders": {"B1": {"name": "IgG1-511-LC33S-FEAR (antibody, V domains shown)", "VH": "QVQLVQSGSELKKPGASVMVSCKASGYTFTSYVMNWVRQAPGQGLEWMGWINSYTGNPTSAQGFTGRFVFSFDTSVNTAYLQISSLKAEDTAVYYCARGYCTSTSCYLDYWGQGTLVTVSS", "VL": "SYELTQPPSVSVSPGHTARITCSGDALPKKYASWFQQKSGQAPVLVIYEDSKRPSGIPERFSGSTSGTMATLTISGAQVEDETDYYCYSADTSGTHRVFGGGTKLTVLG"}, "B2": {"name": "IgG1-338-FEAR (antibody, V domains shown)", "VH": "EVQVVESGGGLVQPGGSLRLSCAASGFTFSRFWMSWVRQAPGKGLEWVANIKQDGGEKYYVDSVKGRFTISRDNAKNSLYLQMNSLRGEDTAVYYCARDDNWNGHFDYWGQGTLVTVSS", "VL": "DIQMTQSPSTLSASVGDRVTITCRASQSISSWLAWYQQKPGKAPNLLIYKASSLESGVPSRFSGSGSGTEFTLTISSLQPDDFATYYCQQYYGSYITFGQGTRLEIKR"}, "B3": {"name": "IgG1-547-FEAR (antibody, V domains shown)", "VH": "EVQLLEPGGGLVQPGGSLRLSCEASGSTFSTYAMSWVRQAPGKGLEWVSGFSGSGGFTFYADSVRGRFTISRDSSKNTLFLQMSSLRAEDTAVYYCAIPARGYNYGSFQHWGQGTLVTVSS", "VL": "SYVLTQPPSVSVAPGQTARITCGGNNIGSKSVHWYQQKPGQAPVLVVYDDNDRPSGLPERFSGSNSGNTATLTISRVEAGDEADYYCQVWDSSSDHVVFGGGTKLTVLG"}}, "key": {"[1]": {"target": "T1, PDLoneECDHisCtag (human, UniProt Q9NZQ7 19-238)", "T1 construct": "Expressed in HEK-293F cells; theoretical molecular weight 29 kDa; also called recombinant human PD-L1 ECD; human PD-L1 (BLI); not shown: C-terminal His-tag; C-tag", "T1 sequence (Q9NZQ7 19-238, form in doubt)": "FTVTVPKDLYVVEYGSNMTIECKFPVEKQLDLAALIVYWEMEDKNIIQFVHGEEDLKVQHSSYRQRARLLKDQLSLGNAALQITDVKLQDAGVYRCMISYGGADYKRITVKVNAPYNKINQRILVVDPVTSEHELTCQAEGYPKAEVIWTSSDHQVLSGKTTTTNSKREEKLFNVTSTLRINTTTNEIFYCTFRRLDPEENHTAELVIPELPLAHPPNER", "assay": "BLI cross-block, second antibody on PDLoneECDHisCtag held by immobilised 476-N101Q-LC33S; bold = blocking", "method": "(§1) Antibody cross-block testing was performed using biolayer interferometry (BLI) on an Octet HTX instrument (ForteBio). Antibodies (20 μg/ml in 10 mM sodium acetate buffer pH 6.0 (ForteBio)) were immobilized on Amine-Reactive 2nd Generation (AR2G) biosensors (ForteBio) according to the instructions of the manufacturer. After a baseline (50 s) in Sample Diluent (ForteBio), biosensors containing immobilized antibodies were loaded for 500 s with PDLoneECDHisCtag (100 nM or 2.7 μg/ml), after which the association response of a second antibody (10 μg/ml) was followed for 500 s. Biosensors were regenerated by using 3 times 5 s alternating exposures to 10 mM glycine pH 2.5 and Sample Diluent. The experiment was repeated with a new set of second antibodies starting from the baseline step. Each biosensor was used 6 times. The experiment was performed at 30° C. using a shaker speed of 1000 rpm. Data was analyzed using Data Analysis Software v9.0.0.12 (ForteBio). The Y-axis was aligned to the association step and Savitzky-Golay filtering was applied. The average buffer response was subtracted from the association response of the second antibody in order to correct for the dissociation of PDLoneECDHisCtag from the immobilized antibody. The corrected association responses were plotted in a matrix format."}, "[2]": {"target": "T2, cynomolgus monkey PD-L1 (full length, on CHO cells) (cynomolgus monkey (Macaca fascicularis), UniProt G7PSE7 19-290)", "T2 construct": "whole, on cells; also called PDL1 Mf; cynomolgus PD-L1", "T2 sequence (G7PSE7 entry or part of it)": "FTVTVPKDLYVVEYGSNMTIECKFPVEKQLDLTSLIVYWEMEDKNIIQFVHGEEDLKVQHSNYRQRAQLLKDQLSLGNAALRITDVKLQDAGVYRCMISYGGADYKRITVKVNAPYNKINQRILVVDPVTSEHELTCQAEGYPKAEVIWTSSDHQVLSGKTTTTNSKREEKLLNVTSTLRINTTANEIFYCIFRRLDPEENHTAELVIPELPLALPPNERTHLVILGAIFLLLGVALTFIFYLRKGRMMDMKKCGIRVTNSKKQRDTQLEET", "assay": "flow cytometry on CHO cells transfected with cynomolgus PD-L1, PE anti-human IgG secondary, MFI (PE)", "method": "(§2) Cells (3-5×10⁴ cells/well) were incubated in polystyrene 96-well round-bottom plates (Greiner bio-one, cat. no. 650101) with serial dilutions of antibodies (range 0.0001 to 10 μg/mL in 5-fold dilution steps) in 50 μL PBS/0.1% BSA/0.02% azide (staining buffer) at 4° C. for 30 min.\n(§3) After washing twice in staining buffer, cells were incubated in 50 μL secondary antibody at 4° C. for 30 min. As a secondary antibody, R-Phycoerythrin (PE)-conjugated goat-anti-human IgG F(ab′)₂ (Cat. no. 109-116-098, Jackson ImmunoResearch Laboratories, Inc., West Grove, Pa.) diluted 1:500 in staining buffer, was used for all experiments. Next, cells were washed twice in staining buffer, re-suspended in 20 μL staining buffer and analyzed on an iQue screener (Intellicyt Corporation, USA). Binding curves were analyzed using non-linear regression (sigmoidal dose-response with variable slope) using GraphPad Prism V75.04 software (GraphPad Software, San Diego, Calif., USA).\n(§4) Binding to CHO cells expressing cynomolgus PD-L1 was determined by flow cytometry using a method as described above."}, "[3]": {"target": "T1, PDLoneECDHisCtag", "assay": "BLI cross-block, second antibody on PDLoneECDHisCtag held by immobilised 632; bold = blocking", "method": "as §1"}, "[4]": {"target": "T3, human PD-L1 (full length, on cells) (human, UniProt Q9NZQ7 19-290)", "T3 sequence (Q9NZQ7 19-290 limits assumed)": "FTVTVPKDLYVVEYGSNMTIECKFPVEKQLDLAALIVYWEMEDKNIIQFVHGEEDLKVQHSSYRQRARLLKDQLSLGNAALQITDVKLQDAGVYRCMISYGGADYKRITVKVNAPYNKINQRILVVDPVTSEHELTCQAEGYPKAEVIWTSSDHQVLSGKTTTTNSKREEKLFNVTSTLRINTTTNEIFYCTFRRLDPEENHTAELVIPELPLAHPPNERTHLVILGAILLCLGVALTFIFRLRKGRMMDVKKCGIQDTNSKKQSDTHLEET", "assay": "cell-based or functional assay"}, "[5]": {"target": "T3, human PD-L1 (full length, on cells)", "assay": "flow cytometry on MDA-MB-231 cells, PE anti-human IgG secondary, MFI (PE)", "method": "as §2, §3"}, "[6]": {"target": "T1, PDLoneECDHisCtag", "assay": "BLI (Octet HTX); antibody on anti-human IgG Fc capture sensor, PDLoneECDHisCtag as analyte; 1:1 global fit, 200 s dissociation time", "method": "In a first set of experiments, affinities for recombinant-expressed human PD-L1 protein were determined using Bio-layer interferometry (BLI) on an Octet HTX instrument (ForteBio). Anti-Human IgG Fc Capture (AHC) biosensors (ForteBio) were loaded for 900 s with antibodies (1 μg/ml). […] The experiment was carried out while shaking at 1000 rpm at 30° C. Data was analyzed with Data Analysis Software v9.0.0.12 (ForteBio) using the 1:1 model and a global full fit with 1000 s association time and 200 or 1000 s dissociation time. Data traces were corrected by subtraction of a buffer reference, the Y-axis was aligned to the last 10 s of the baseline, and interstep correction as well as Savitzky-Golay filtering was applied. Data traces with a response <0.05 nm were excluded from analysis. As default, the fit using 1000 s dissociation time was used."}, "[7]": {"target": "T3, human PD-L1 (full length, on cells)", "assay": "cell-based or functional assay", "remark": "listed apart in the source"}, "[8]": {"target": "T2, cynomolgus monkey PD-L1 (full length, …)", "assay": "flow cytometry on CHO cells transfected with cynomolgus PD-L1, PE anti-human IgG secondary, MFI (PE)", "method": "as §2, §3, §4", "remark": "listed apart in the source"}, "[9]": {"target": "T3, human PD-L1 (full length, on cells)", "assay": "cell-based or functional assay", "remark": "listed apart in the source"}, "[10]": {"target": "T3, human PD-L1 (full length, on cells)", "assay": "flow cytometry on MDA-MB-231 cells, PE anti-human IgG secondary, MFI (PE)", "method": "as §2, §3", "remark": "listed apart in the source"}, "[11]": {"target": "T1, PDLoneECDHisCtag", "assay": "BLI cross-block, second antibody on PDLoneECDHisCtag held by immobilised 511-LC33S; plain = non-blocking", "method": "as §1"}, "[12]": {"target": "T2, cynomolgus monkey PD-L1 (full length, …)", "assay": "flow cytometry on CHO cells transfected with cynomolgus PD-L1, PE anti-human IgG secondary, MFI (PE)", "method": "as §2, §3, §4", "remark": "listed apart in the source"}, "[13]": {"target": "T1, PDLoneECDHisCtag", "assay": "BLI cross-block, second antibody on PDLoneECDHisCtag held by immobilised 476-N101Q-LC33S; plain = non-blocking", "method": "as §1"}}, "note": "Like-named read-outs stand apart in the source and are kept apart here.", "data": [{"binder": "B1", "values": [{"measurement": "association response of the second antibody", "setting": "[1]", "value": 0, "unit": "nm"}, {"measurement": "EC50 (read off the curve)", "setting": "[2]", "value": "~0.08", "unit": "µg/mL"}, {"measurement": "association response of the second antibody", "setting": "[3]", "value": 0, "unit": "nm"}, {"measurement": "EC50 (read off the curve)", "setting": "[4]", "value": "~0.05", "unit": "µg/mL"}, {"measurement": "EC50 (read off the curve)", "setting": "[5]", "value": "~0.08", "unit": "µg/mL"}, {"measurement": "Kd", "setting": "[6]", "value": 3.8, "unit": "nM"}, {"measurement": "koff", "setting": "[6]", "value": 0.0045, "unit": "s⁻¹"}, {"measurement": "kon", "setting": "[6]", "value": "1.2e+06", "unit": "M⁻¹ s⁻¹"}]}, {"binder": "B2", "values": [{"measurement": "EC50 (read off the curve)", "setting": "[7]", "value": "~0.03", "unit": "µg/mL"}, {"measurement": "EC50 (read off the curve)", "setting": "[8]", "value": "~0.07", "unit": "µg/mL"}]}, {"binder": "B3", "values": [{"measurement": "EC50 (read off the curve)", "setting": "[9]", "value": "~0.02", "unit": "µg/mL"}, {"measurement": "EC50 (read off the curve)", "setting": "[10]", "value": "~0.03", "unit": "µg/mL"}, {"measurement": "association response of the second antibody", "setting": "[11]", "value": 0.6, "unit": "nm"}, {"measurement": "EC50 (read off the curve)", "setting": "[12]", "value": "~0.05", "unit": "µg/mL"}, {"measurement": "association response of the second antibody", "setting": "[13]", "value": 0.7, "unit": "nm"}]}]}
